Experimental data taken from patent publication US20250155438A1 (KING ABDULAZIZ UNIVERSITY, published 2025).

Target: T1, SARS-CoV-2 nucleocapsid protein (SARS-CoV-2, UniProt P0DTC9 1-419)
T1 construct: also called NCAP; N-capsid

B1: anti-NCAP-2 nanobody (VHH, not shown: small tags and cut ends)
VHH: QVQLVESGGALMQAGGSLRLSCAVSGIRLGYYTIAWFRQAPGKEREGISCISRSEGSTYYADSVKGRFTISTENAENTVYLQMNSLKPDDTAVYYCAVDFVPASHCAVANTKGYDYWGQGTQVTVSS
notes: also called N Capsid nanobody NCAP-2
Q: Does B1 bind?
A: binds
